Reference: patent publication US20240384250A1, “FIBROBLAST GROWTH FACTOR 23 MODULATING COMPOUNDS” (THE UAB RESEARCH FOUNDATION, priority 2021, published 2024)

Molecular target: recombinant FGF23 protein (species not stated for the assay)
Assay: sKL detection assay (sandwich): FGF23 coated, sKL sample, then Fc-FGFR1c, anti-Fc-HRP, A450

fold binding activity against Com.sKL: 7 fold
Substance: FLAG-tagged soluble klotho (sKL) (receptor)
